Assay: soluble on expression in E. coli; label from the status in PepcDB or PDB records

| Sequence | soluble on expression in E. coli |
| --- | --- |
| MFCSFFHEKKKNILRLNIRCQRLREHDNTAKIELFKSMRRRRSSTKASRKTTMGGAAELEDEWIPSETMSGAGWKARGDRKPKDKRVPFNRPTPYQIYEALPFVRRYFMYWMKHTFDKEKLFINTFQPLKHKPYYGVPCGGIGCGAIGRDFRGGFCKFSLRPGLVEHKVDVVAADQFILSVRENDRCIYQKVLSAADVQRPSGQLSTWDFKFPKKNVHYRGLFPRSWTTFRVPELELTVVIRQVSPVLPHNYEDTTYPVCLFLIDVENGGSASREYEISVAFTFRNGTGNRRWEREAECSGVKFETEEEGLKPTTTAQEKISGVSLYHTISSMPCTYGLATTHREHTTTTVCERFDPSRNGAALWNHLKQTGDVPSCEEECLINAREMAVAVCNRFTLPPNSTKTHDYALSWDMPKVHFGSVARSYHRRYTRFFEASEAGSAADSLCVRALRLKDKWESEIEAWQSPILNHKKLPDWYKSAIFNELYFITDGGTVWFEFDENWAEHETHLSHYTKDKMKEIGRFGYLESWEYRMVNTYDVHFYASFALAELWPELEITIQSEFTDQVYHSIEKPTRFHMEGDWANVKTASRVPHDLGNPADEPWIATNAYVMHDTGKWKDLNMKYVLTSWRDYVVLSNEHEDFLFHTWPAVRMIMLEALENWDQDGDGMIENFGKADQTYDAWQMEGVSAYCGSLWLASLRVAIEMAGLMKDDETQQLFRNTLEKAKKVFIDTLWTGTYFRFCERSRSRETVMADQLCGYWFLQSVSPELADELLPNHMVRSALDTIYRLNVCKFGNGRMGAVNGMKPSGVVDREYIQADEMWTGVTYAVASLLIQQGEVEKAFHTASGSYLTCFEETGLQYQTPEALYESKFYRAIGYMRPLSIWAMQWSLKKHCGMNTSEEKLPNLVKNEKVVPESEAAIQVQKQRILGDTSEDGSSLGYVSDYHDERSIPKIATLR | not soluble |
| MFDISHMGRLLIEDPEKKLQYFTTNNLDKLSVGKVQYNLLPNEKGGIKDDVTVYMLSEIEFFLCVNAANRQKVINWLSPHLKLRDLSGELVQIALQGPKSEEIISKFYPVSDLKYYRFKVFDKTIISRTGYTGEDGFEIYVSPEEGKELFLELVKLAKPCGLGARDVLRIEAGLPLYGNELSEEITPIEVNLEKFVDFSKEFIGKEAMLKKKVKKKLFGLELTEKGIPRKGYRVFKGDREIGWISSGTYSPTLNKGIALCFVDIEERKEGNEVEIEVRGRRVRGVLRKYPFVRTPAGRYQKLEHHHHHH | not soluble |
| MFDLEKVQTLNELEMLVYHYVLEHLHQIPQQTIRQLATSCHVSTSTILRFCNKMGYAGFSELKYAVKEEAKQTQTFENFYDATVHVDAFLKKLNQETYYEMLRPAIQMIVQARHVAFTGIGTSGILGSYGSRYFANLNINSYSIADPFTPIPKRGFENTLALILSVSGETNEMIKQMTDFKTAGAKVLSITNNQHSTIARLADYNISYYMPDERSPFADKSVNTTTQIPVIALIELLAHQASQLLKELDETPS | not soluble |
| MFDRLKNGEKIAPIVKEVESQITEVHKRADEVIESNQFRVLESFGKHKISDSHFIPTTGYGYDDIGRDTLEKVYADVFGAEAGLVRPQIISGTHAISTALFGILRPGDELLYITGKPYDTLEEIVGVRGKGVGSFKEYNIGYNAVPLTEGGLVDFEAVAAAIHSNTKMIGIQRSKGYATRPSFTISQIKEMIAFVKEIKPDVVVFVDNCYGEFIEEQEPCHVGADLMAGSLIKNPGGGIVKTGGYIVGKEQYVEACAYRLTSPGIGAEAGASLYSLQEMYQGFFLAPHVAGQALKGAIFTAAFLEKLGMNTSPAWNAPRTDLIQSVQFDDKDRMIAFCQAIQYASPINSHFTPYANYMPGYEDDVIMAAGTFIQGASIELSADGPIRPPYVAYVQGGLTYSHVKIAICSAIDELIEKNLLTISLEHHHHHH | soluble |
| MFDRLLSQFGRKRVASESVATQQQLTDRTNVYTVKPQDPLLDKKQKMTPVQKVCLKCLAGESGHITHVLSSLSN | not soluble |
| MFEARLTDVRANKLAQAWRLAYEQADGKRRRAMLGGLAQVGAGMQGDGAQGTRLFKRFNALPDGLRFLVALRADMLRWRKQVAGLQALDKELEALLSAWFDVGLLELRPLTWDSPASLLEKLILYEAVHEIRSWDDLRHRVAGDRRCYAYFHPQMPDVPLIFVEVAFSAQMADNVQALLDTSAPPQDLDKARWAIFYSISNTQPGLRGISFGNFLLKRVIDRLLQELPKLKFFATLSPIPGFADWLSRLDAQEVEQAVRDKARTRSGAPDGARWVARLARAATGKPSEVVQRAGLRLAARYLQAMRAGQPLDPVARFHLGNGARIERLNWAADTSAKGLAQSCGMMVNYLYELGDLDGNLARLNEGKPQVSRGIARLGAAALEHHHHHH | soluble |
| MFEKEKEGLIEVQNVYEIAPEDGTIIGMATEEEMEIAAELELQYYAHSRLLEANIQLDGSSYKELLQEFQEYERKSMSFWRAIHKRLAVPWAWVLRIDVANGPIYVSNGSSYYEEIDDEEDYE | not soluble |
